From the MegaScale stability set (Tsuboyama et al. 2023)

B1: HEEH_KT_rd6_3632 (parent)
chain: DAEELIELVERALKEGREIILLGVRITSEEAGKWFIEWIRRFL

Variants of: B1
Test: folding stability dG (cDNA display proteolysis); higher = more stable
Conditions: PBS, room temperature

For DAEELIELVERALKEGRTIILLGVRITSEEAGKWFIEWIRRFL [E18T], which “folding stability dG” value is on record?
Its value is 3.94 kcal/mol.

Which “folding stability dG” value does the source give for DAEELIELVERALKEGRWIILLGVRITSEEAGKWFIEWIRRFL [E18W] here?
The value was 3.78 kcal/mol.

With DAEELIELVERALKEGRSIILLGVRITSEEAGKWFIEWIRRFL [E18S] as the variant, how does the “folding stability dG” value read?
The value was 3.83 kcal/mol.

For DAEELIELVERALKEGRVIILLGVRITSEEAGKWFIEWIRRFL [E18V], which “folding stability dG” value is on record?
The value was 3.91 kcal/mol.

Which “folding stability dG” value does the source give for DAEELIELVERALKEGRYIILLGVRITSEEAGKWFIEWIRRFL [E18Y] here?
Its value is 3.78 kcal/mol.

For DAEELIELVERALKEGREAILLGVRITSEEAGKWFIEWIRRFL [I19A], which “folding stability dG” value is on record?
Its value is 3.18 kcal/mol.

For DAEELIELVERALKEGREKILLGVRITSEEAGKWFIEWIRRFL [I19K], which “folding stability dG” value is on record?
The value was 2.94 kcal/mol.

Which “folding stability dG” value does the source give for DAEELIELVERALKEGREPILLGVRITSEEAGKWFIEWIRRFL [I19P] here?
Its value is 2.74 kcal/mol.

Which “folding stability dG” value does the source give for DAEELIELVERALKEGRERILLGVRITSEEAGKWFIEWIRRFL [I19R] here?
Its value is 2.81 kcal/mol.

For DAEELIELVERALKEGREYILLGVRITSEEAGKWFIEWIRRFL [I19Y], which “folding stability dG” value is on record?
Its value is 3.23 kcal/mol.

With DAEELIELVERALKEGREEILLGVRITSEEAGKWFIEWIRRFL [I19E] as the variant, how does the “folding stability dG” value read?
Its value is 2.63 kcal/mol.

For DAEELIELVERALKEGRECILLGVRITSEEAGKWFIEWIRRFL [I19C], which “folding stability dG” value is on record?
The value was 4.54 kcal/mol.

Which “folding stability dG” value does the source give for DAEELIELVERALKEGREWILLGVRITSEEAGKWFIEWIRRFL [I19W] here?
The value was 3.44 kcal/mol.

With DAEELIELVERALKEGREFILLGVRITSEEAGKWFIEWIRRFL [I19F] as the variant, how does the “folding stability dG” value read?
The value was 3.43 kcal/mol.

Which “folding stability dG” value does the source give for DAEELIELVERALKEGREVILLGVRITSEEAGKWFIEWIRRFL [I19V] here?
Its value is 3.4 kcal/mol.

For DAEELIELVERALKEGREMILLGVRITSEEAGKWFIEWIRRFL [I19M], which “folding stability dG” value is on record?
Its value is 3.23 kcal/mol.

Which “folding stability dG” value does the source give for DAEELIELVERALKEGRELILLGVRITSEEAGKWFIEWIRRFL [I19L] here?
The value was 3.56 kcal/mol.

For DAEELIELVERALKEGRENILLGVRITSEEAGKWFIEWIRRFL [I19N], which “folding stability dG” value is on record?
The value was 2.86 kcal/mol.

For DAEELIELVERALKEGREGILLGVRITSEEAGKWFIEWIRRFL [I19G], which “folding stability dG” value is on record?
The value was 2.96 kcal/mol.

For DAEELIELVERALKEGRESILLGVRITSEEAGKWFIEWIRRFL [I19S], which “folding stability dG” value is on record?
Its value is 2.75 kcal/mol.

For DAEELIELVERALKEGREDILLGVRITSEEAGKWFIEWIRRFL [I19D], which “folding stability dG” value is on record?
Its value is 2.66 kcal/mol.

Which “folding stability dG” value does the source give for DAEELIELVERALKEGREQILLGVRITSEEAGKWFIEWIRRFL [I19Q] here?
Its value is 2.91 kcal/mol.

Which “folding stability dG” value does the source give for DAEELIELVERALKEGRETILLGVRITSEEAGKWFIEWIRRFL [I19T] here?
Its value is 2.97 kcal/mol.

Which “folding stability dG” value does the source give for DAEELIELVERALKEGREHILLGVRITSEEAGKWFIEWIRRFL [I19H] here?
Its value is 2.98 kcal/mol.

For DAEELIELVERALKEGREIGLLGVRITSEEAGKWFIEWIRRFL [I20G], which “folding stability dG” value is on record?
Its value is 2.71 kcal/mol.

For DAEELIELVERALKEGREILLLGVRITSEEAGKWFIEWIRRFL [I20L], which “folding stability dG” value is on record?
The value was 3.35 kcal/mol.

With DAEELIELVERALKEGREIFLLGVRITSEEAGKWFIEWIRRFL [I20F] as the variant, how does the “folding stability dG” value read?
Its value is 3.32 kcal/mol.

For DAEELIELVERALKEGREIHLLGVRITSEEAGKWFIEWIRRFL [I20H], which “folding stability dG” value is on record?
The value was 3.17 kcal/mol.

For DAEELIELVERALKEGREIWLLGVRITSEEAGKWFIEWIRRFL [I20W], which “folding stability dG” value is on record?
The value was 3.4 kcal/mol.

With DAEELIELVERALKEGREIPLLGVRITSEEAGKWFIEWIRRFL [I20P] as the variant, how does the “folding stability dG” value read?
Its value is 2.65 kcal/mol.

For DAEELIELVERALKEGREIKLLGVRITSEEAGKWFIEWIRRFL [I20K], which “folding stability dG” value is on record?
The value was 3.01 kcal/mol.

Which “folding stability dG” value does the source give for DAEELIELVERALKEGREIYLLGVRITSEEAGKWFIEWIRRFL [I20Y] here?
Its value is 3.27 kcal/mol.

With DAEELIELVERALKEGREIVLLGVRITSEEAGKWFIEWIRRFL [I20V] as the variant, how does the “folding stability dG” value read?
The value was 3.66 kcal/mol.

With DAEELIELVERALKEGREINLLGVRITSEEAGKWFIEWIRRFL [I20N] as the variant, how does the “folding stability dG” value read?
Its value is 3.08 kcal/mol.

With DAEELIELVERALKEGREIALLGVRITSEEAGKWFIEWIRRFL [I20A] as the variant, how does the “folding stability dG” value read?
The value was 2.94 kcal/mol.

Which “folding stability dG” value does the source give for DAEELIELVERALKEGREISLLGVRITSEEAGKWFIEWIRRFL [I20S] here?
Its value is 3.18 kcal/mol.

Which “folding stability dG” value does the source give for DAEELIELVERALKEGREIQLLGVRITSEEAGKWFIEWIRRFL [I20Q] here?
Its value is 3.12 kcal/mol.

With DAEELIELVERALKEGREIMLLGVRITSEEAGKWFIEWIRRFL [I20M] as the variant, how does the “folding stability dG” value read?
Its value is 3.26 kcal/mol.

Which “folding stability dG” value does the source give for DAEELIELVERALKEGREIDLLGVRITSEEAGKWFIEWIRRFL [I20D] here?
Its value is 2.84 kcal/mol.

For DAEELIELVERALKEGREITLLGVRITSEEAGKWFIEWIRRFL [I20T], which “folding stability dG” value is on record?
The value was 3.73 kcal/mol.

For DAEELIELVERALKEGREIELLGVRITSEEAGKWFIEWIRRFL [I20E], which “folding stability dG” value is on record?
The value was 3.32 kcal/mol.

Which “folding stability dG” value does the source give for DAEELIELVERALKEGREIRLLGVRITSEEAGKWFIEWIRRFL [I20R] here?
The value was 3.13 kcal/mol.

For DAEELIELVERALKEGREIIELGVRITSEEAGKWFIEWIRRFL [L21E], which “folding stability dG” value is on record?
Its value is 3.06 kcal/mol.

For DAEELIELVERALKEGREIIKLGVRITSEEAGKWFIEWIRRFL [L21K], which “folding stability dG” value is on record?
The value was 2.98 kcal/mol.

For DAEELIELVERALKEGREIITLGVRITSEEAGKWFIEWIRRFL [L21T], which “folding stability dG” value is on record?
The value was 2.78 kcal/mol.

With DAEELIELVERALKEGREIIILGVRITSEEAGKWFIEWIRRFL [L21I] as the variant, how does the “folding stability dG” value read?
The value was 3.83 kcal/mol.

Which “folding stability dG” value does the source give for DAEELIELVERALKEGREIIGLGVRITSEEAGKWFIEWIRRFL [L21G] here?
Its value is 2.83 kcal/mol.

With DAEELIELVERALKEGREIIPLGVRITSEEAGKWFIEWIRRFL [L21P] as the variant, how does the “folding stability dG” value read?
The value was 2.6 kcal/mol.

For DAEELIELVERALKEGREIIWLGVRITSEEAGKWFIEWIRRFL [L21W], which “folding stability dG” value is on record?
The value was 3.33 kcal/mol.

For DAEELIELVERALKEGREIIFLGVRITSEEAGKWFIEWIRRFL [L21F], which “folding stability dG” value is on record?
Its value is 3.49 kcal/mol.

Which “folding stability dG” value does the source give for DAEELIELVERALKEGREIIRLGVRITSEEAGKWFIEWIRRFL [L21R] here?
The value was 3.14 kcal/mol.

Which “folding stability dG” value does the source give for DAEELIELVERALKEGREIISLGVRITSEEAGKWFIEWIRRFL [L21S] here?
Its value is 3.12 kcal/mol.

With DAEELIELVERALKEGREIIQLGVRITSEEAGKWFIEWIRRFL [L21Q] as the variant, how does the “folding stability dG” value read?
The value was 2.93 kcal/mol.

For DAEELIELVERALKEGREIINLGVRITSEEAGKWFIEWIRRFL [L21N], which “folding stability dG” value is on record?
The value was 3.01 kcal/mol.

For DAEELIELVERALKEGREIIALGVRITSEEAGKWFIEWIRRFL [L21A], which “folding stability dG” value is on record?
Its value is 3.37 kcal/mol.

For DAEELIELVERALKEGREIIVLGVRITSEEAGKWFIEWIRRFL [L21V], which “folding stability dG” value is on record?
The value was 3.9 kcal/mol.

Which “folding stability dG” value does the source give for DAEELIELVERALKEGREIIHLGVRITSEEAGKWFIEWIRRFL [L21H] here?
Its value is 2.92 kcal/mol.

Which “folding stability dG” value does the source give for DAEELIELVERALKEGREIIMLGVRITSEEAGKWFIEWIRRFL [L21M] here?
Its value is 3.36 kcal/mol.

Which “folding stability dG” value does the source give for DAEELIELVERALKEGREIIDLGVRITSEEAGKWFIEWIRRFL [L21D] here?
Its value is 2.71 kcal/mol.
